Measured values reported in publication PMC12491500.

Molecular target: His-tagged SA2107 labelled with ATTO 488 (SA2107_(488)) (Staphylococcus aureus)
Experiment: flow-induced dispersion analysis (FIDA); PreMix method; 20 nM SA2107_(488) as indicator, preincubated 10 min with 0-2 µM unlabelled ComK1 or ComK2 as analyte; PBS + Tween 0.1%; 25 °C; change of the apparent hydrodynamic radius; three independent experiments

Kd: 420 nM
Substance: His6-tagged ComK2 (recombinant, purified) (natural protein)
